Results published in a protein production outcome set (Wang et al. 2014).

Assay: label from the status in PepcDB records

Sequence	protein production
ESKYIEYKKSRKGLSNDIWSTYSAFANTEGGTIYLGIEEKKIEDKKVFVSVGVEDPEKMIEDFWNALYGRSKVSQNILSNKDVKIVNIENKACIEIHVPEAPYSKKPIYVDNKKDLVYKRVDDADRIATEEEYKFMIVNSQDDIDTELLDNYDMSDLNHESIENYRKLLLKNTNDERYANMSQLDLMIDLGAYRKDRSSKDKQYKMTTACLLFFGKYNAISDRFPGFQLDYFKKTNYLDTDWKDRISSGDLGNEDLNVYSFFEKVLIKLTDNIEESFSLNDGLTRQNYARDLKVAIREALVNTLMHAYYDTKQSIKIVNCEDFIEFYNPGNMRINKEDFIHGGHSKDRNSILSTLFRRVGYSEKAGSGGPRIFDVVNRHKLKTPEIELTDMDTNVVLWKQDLMKEFEKYPELDKKVIKYIIDYGSISKGEALKMENMTEYQFRNILKKLKDDNLIKKEGEGPATKYVL	failed
MRGGSLWQLGQSITRRLAQSDKKVVSRRYFASEADLKKTALYDFHVAHGGKMVPFAGWSMPIQYKDSIMDSTVNCRENGSLFDVAHMCGLSLKGKDCVPFLETLVVADVAGLAPGTGSLTVFTNEKGGAIDDSVITKVTDEHIYLVVNAGCRDKDLAHIEEHMKAFKSKGGDVSWHIHDERSLLALQGPLAAPVLQHLTKEDLSKLYFGNFQILDINGSTCFLTRTGYTGEDGFEISVPDEHAVDLAKAILEKSEGKVRLTGLGARDSLRLEAGLCLYGNDMEQHISPVEAGLTWAIGKRRRAEGGFLGADVILQQLKDGPTIRRVGFFSSGPPARSHSEVHDESGNKIGEITSGGFSPNLKKNIAMGYVKSGQHKTGTKVKILVRGKPYEGSITKMPFVATKYYKPT	failed
MNVSTAELLSWVVKSSYLVAATLFLLGLQRMASPLSARSGIRWAGLGMLIATVATFFLPELHNVPLILAALAIGTGVAWWSAKKVAITDMPQMVALYNGMGGGSAAAIGAVELLRFSFFANRDTAHWSAQAVAELAARQPDTAMVVLAVIGSAIGAVSLSGSIIAWAKLDGRLDRRMTFPGQQAFNLAVAVAVLALAIWAAGSLQPLAIIAFFVVALALGVLMTLPIGGADMPVVISLYNAFTGLAVAFEGYVLGNEALIIAGMMVGAAGILLTRLMAKAMNRPISGVLFSNFGGGGQAQEISGVQKPIEAGDVAAMMAFAERVVIVPGYGMAVAQAQHKIWELAQRLMARGVKVKFAIHPVAGRMPGHMNVLLAEAGVPYDLIADMDDINPEFASTDVSLVIGANDVVNPVAKTDSASPIYGMPILDVVNSRNTVVIKRGKGTGFAGIENALFYADNTRMLYGDGAEAAGALVSELKALDGSGH	failed
MPDACFSDGDPIVLVVLGYVVVVVAVLGGYALTGGHMGALYQPAELIIIGGAAVGAFISSNSGKAIKATMKAMPSLLKGSKYKKELYLDVMALLYVLLSKARREGILFLEKEIADPASSSVFSQYPRILADAKMMEFLTDYLRMMVNGNMNAFEIEALMDHEIETVRHEAEIPAHALSRVGDGLPAFGIVAAVMGVVHALASADLPPAELGALIANAMVGTFLGILLAYGFVSPLASRVEHQVSESIKMYECIKVTLLASLNGYAPLVAVEFGRKVLYSTVRPSFLELDDHVREVKSLT	failed
MDKTNLGELINQGKSLLDESVEGFNVGEYHKGAKDGLTVEINKAEEVFNKEDATEEEINLAKESLEGAIARFNSLLIEESTGDFNGNGKIDIGDLAMVSKNIGSTTNTSLDLNKDGSIDEYEISFINHRILNLEHHHHHH	not failed
MTRNGHERAKPLRPGDPTELGAYRIVGRLGRGGMGTVYLGKDTAERLVAIKLIRPDLSEDPAFRQRFAREVAAARRVARFSTAAVLDAQLEGDPLFIVSEYVAGPNLAEAIQADGPMYGGTLESLAMGVAAALTAIHGAGVIHRDLKPANVLLSSVGPKVIDFGIARALDDDTAVTRSSQLMGTPAYLAPELIAGEPPTPMSDIFSWGCLVAYAGTGRAPFDAPTVPAVLHQIVAGQPNLSGLDPALRELVESALDKFPDNRPTAQQLLSRLVGQEEMSLDAVHETVVRSWTPPATSRPEAVPSGPNPAAVPAQVGAAAAAPPTQPGTTPPGGQPSATPSAGHPGATPPAGQPAAAPPFPEHSPQTPPWAAPTPPGGNGTEQKTRGTRFSPAIAIAGGSAVALLAGAVIGGLVLFRSPEVPEGMQVYADDFTHQDGWAGYDFDPENTFSWSGYYQGGYALSADGDTRTSTVSVAPPAGLPEQVRVSATTQVVSGPDYGTYGLHCFYNDDGDNVTYYSATVRVDGSAAQIRRHGGEQGSTHLEEVTAKPVSGFLTPSRDAEEAPVNTFDFTCELDPEADTVTLNLWLNGEHVLEAVDTNPLPYDGEDAPQAGMLAGRGIGGGDNIVVVFDDFAVYQLDGGQRERS	failed
REEDPHEGKIWFHGKISKQEAYNLLMTVGQVCSFLVRPSDNTPGDYSLYFRTNENIQRFKICPTPNNQFMMGGRYYNSIGDIIDHYRKEQIVEGYYLKEPVPMQDQ	not failed
MNLRPYQHTIVDFILTHPRCNLFVPMGLGKTVATLTALDVLLVVEDIAPILVIAPLRVAATTWPDEVAKFPHLRHLRVSVVVGSAAARRHALEQEADIYCINYDTLKWLVEFYKDRWPFRMVVADECSKLKGFRLRQGTRRARALATHVHTKVERYVGLTGTPAPNGLQDLWALMWMVDRGARLGTHFKAFIDRWFRAMQIGSDPHAVRFVPTPHASQEIQDKIRDICLSLDPHAYFDLCQPIVNTIRVALPAHAQRLYKAMEQDMFIALECGAEVEAFNAASKTIKCLQLANGALYTDDTRQAWEVVHDAKLEALHDIIEEAAGMPVLVAYHFKSDVARLQRAFPKGRALDKHPDTIRDWNAGNIPVLFAHPASAGHGLNLQDGGNILAFFGHWWDLEQYQQIIERIGPTRQAQAGHTRPVFIHHIVAAGTVDELVMARRESKREVQDLLLEAVKRRETGKPLTSQGAIAL	failed
MNTRAPAVEARQLIKTYPGDVTALSGMDITVEPGTVFGLLGPNGAGKSTTVKILTTLARPDSGTATVAGHDVLRHPDRVRRAIGVVAQSSGADPVATGRENLRLQGRLHGLKGAGLSRRVAELLDRFKLADAAGRQVKGYSGGMRRRLDVALGLVHRPEVLFLDEPTTGLDPEARTAMWDEIARLAGDEGLTILLTTHYLEEADRLAERIAIVDRGRVVVEGTPDGLKGELRGDAIHLELREAVGQAGRTLLKGSLGGVPGVHEVLFDDAQGRRVSVRADDGAAAMPALLGALERAGVGVAAATVARPSLDDVYLRHAGRRYSEAEAEGADSLALAGATGGTRLEHHHHHH	failed
MAISIRTMAALSMVGLRGKRDVQQYSEWISQPCRPAMKGFRPGIGPTLVVLLLLPVLVALGFWQLGRGEQKRQLLASYAERRAAEPVALFELLASEDPAFRRVRLHGHFDADHSLLLDNRLHDGKVGVELLQPFLDQASGRWLLVNRGWLPWPDRRTPPVFSTPQQSLSLDAWVYVSPGAAFQLHADPSGASWPRLITAVGPQALWAELGRSGFDHEVRLESGPGAYLTEWPVVAMGPEKHQAYAVQWFAMALALFALYLYFGWHNTREKRHGNGHESTQHL	failed
MKLNIKDVVLNYNIIGEGEPIIILHGYSVDHTIMFGCMENLFSDESRYKRIYVDLPGMGKSTSSDSIKTSDNMLDIILEFIMKVTKGENFLLVGESYGGYLSRGVVYKIREKVNGLFLICPAIIPDFNKRTVPEHVILAYDEKLMSKLNKEEAEEFSSMSVVQNEKIYLRFKEEVMSGIKLGNQDFLERLQREGYGFSFDVDKLPQKFDKPTLMLLGKQDASVGYKDAWNILDNYPRATFAVLDMAGHNLQIEQEDIFNLLGKEWISRTYREKDY	failed
MRIRLLGGLEVMSREHRQVRFTTRKTSLLFAALVLGGRRGYRRELLSETFWPGRSNEQARNSLRQALVDIRRSFPAGGDAPVYIDGDQETVALITGPDETDISIFDRKLEAGRTADLAFAADLYRGEVLAGEAIPDELDEWFGPYRSTYQRKALQLVERLSQALSEPGTAEESACEGLAERLLAMDPTVEAAHRALMQIHALRGHENAALRQFEACRALLRKHLQAEPEAETSSLAASLQSRQGSEHRRTTPGPDPVPQPQAISAPAKHHDRPSVAVLPFQNLSGDAEQEYFADGIVEDITIALAQFRHLYVIARNSSFTYKGQAVDIKQVGRELDVRYVVEGSVRRTGDRLRIAGQLIDTSTGTHLWADRFDGTLANVFDLQDQVASSIVGAITPKVEEAEIERAKRKPTESLDAYDYYLRGLAAFDRTVTNRSVIDEALRLFREAIERDPEFAVAHARAARCYATRKSNGWMLNPADETAEATRLARRAVELGWDDAVALTYGGYVIGYVGGDLDDSAACIDRAVSLNPNLAAALGVSSWVKVCLGEPDKAIEHATLAMRLSPLDPRLFAWQFNIGLAHFCAGHYDDAAVWAGKSLRHQLNYPSAMRVMAASQAMAGRLAQARETIARLCLMDPALRLSNLADVLPPFRRPDDRNRYIEALRMAGLPE	failed
